Some targets named below: ADAM9 from R & D Systems (UniProt Q13443); MMP 12 (UniProt P39900); MMP 14 (UniProt P50281); MMP 2 (UniProt P08253); MMP 3 (UniProt P08254); MMP 9 (UniProt P14780).
Test in all cases: cell-based or functional assay
For assay [1], the target named is ADAM17 from R & D Systems (UniProt P78536).
The target in assay [2] is Human ADAM10 from R & D Systems (human) (UniProt O14672).
For assay [3], the target named is Meprin from R & D Systems.

The source of these data is patent publication US20250207119A1.

Chain of MMP 9 (P14780 20-707 limits assumed): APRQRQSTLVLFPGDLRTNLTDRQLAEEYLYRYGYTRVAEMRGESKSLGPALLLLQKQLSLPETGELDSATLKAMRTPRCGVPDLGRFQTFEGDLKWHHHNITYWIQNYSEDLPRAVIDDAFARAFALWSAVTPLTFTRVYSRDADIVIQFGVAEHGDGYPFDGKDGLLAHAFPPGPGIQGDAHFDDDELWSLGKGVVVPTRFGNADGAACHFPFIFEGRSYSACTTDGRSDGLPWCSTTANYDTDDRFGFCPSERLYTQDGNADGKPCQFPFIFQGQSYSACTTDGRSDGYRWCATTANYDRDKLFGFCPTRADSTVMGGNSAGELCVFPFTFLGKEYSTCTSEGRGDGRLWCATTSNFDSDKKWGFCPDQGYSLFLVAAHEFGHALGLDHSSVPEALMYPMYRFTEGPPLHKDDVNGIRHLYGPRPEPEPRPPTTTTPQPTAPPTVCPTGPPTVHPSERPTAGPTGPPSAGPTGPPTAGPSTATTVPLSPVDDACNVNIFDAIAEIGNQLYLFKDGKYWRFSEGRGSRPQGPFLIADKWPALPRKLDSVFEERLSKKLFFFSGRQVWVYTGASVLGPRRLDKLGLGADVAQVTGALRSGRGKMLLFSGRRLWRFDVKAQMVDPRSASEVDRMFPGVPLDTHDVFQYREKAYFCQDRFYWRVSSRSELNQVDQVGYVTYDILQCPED
Chain of MMP 2 (P08253 30-660 limits assumed): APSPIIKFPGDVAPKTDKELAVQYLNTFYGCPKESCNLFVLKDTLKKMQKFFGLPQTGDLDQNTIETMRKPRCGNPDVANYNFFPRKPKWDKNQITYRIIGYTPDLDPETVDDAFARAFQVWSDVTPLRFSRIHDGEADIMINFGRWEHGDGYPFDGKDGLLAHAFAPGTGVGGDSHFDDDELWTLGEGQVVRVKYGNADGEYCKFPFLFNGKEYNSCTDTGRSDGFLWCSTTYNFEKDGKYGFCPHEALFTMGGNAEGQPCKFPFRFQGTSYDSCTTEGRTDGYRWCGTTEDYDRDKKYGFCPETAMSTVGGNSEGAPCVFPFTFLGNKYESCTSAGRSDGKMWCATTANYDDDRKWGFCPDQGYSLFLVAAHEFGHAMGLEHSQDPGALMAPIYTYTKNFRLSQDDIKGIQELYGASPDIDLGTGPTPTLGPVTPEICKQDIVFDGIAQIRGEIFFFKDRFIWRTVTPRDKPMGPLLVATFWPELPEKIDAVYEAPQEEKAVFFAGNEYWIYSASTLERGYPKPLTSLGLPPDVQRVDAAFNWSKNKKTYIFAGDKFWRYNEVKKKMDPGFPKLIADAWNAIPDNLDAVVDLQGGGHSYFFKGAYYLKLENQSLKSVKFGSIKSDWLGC
Chain of ADAM17 from R & D Systems (P78536 215-671 limits assumed): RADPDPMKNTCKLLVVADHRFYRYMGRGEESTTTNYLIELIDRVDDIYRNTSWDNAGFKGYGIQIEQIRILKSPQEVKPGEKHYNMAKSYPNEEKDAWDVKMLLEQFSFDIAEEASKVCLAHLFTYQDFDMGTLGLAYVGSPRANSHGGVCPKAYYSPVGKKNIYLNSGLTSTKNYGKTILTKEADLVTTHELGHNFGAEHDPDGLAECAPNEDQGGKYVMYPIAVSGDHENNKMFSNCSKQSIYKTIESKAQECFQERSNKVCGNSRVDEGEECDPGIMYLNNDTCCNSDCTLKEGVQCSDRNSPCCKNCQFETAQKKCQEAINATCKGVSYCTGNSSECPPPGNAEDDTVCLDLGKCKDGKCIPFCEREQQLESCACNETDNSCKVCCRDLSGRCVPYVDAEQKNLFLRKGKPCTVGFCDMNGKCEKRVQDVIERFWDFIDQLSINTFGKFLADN
Chain of ADAM9 from R & D Systems (Q13443 29-697 limits assumed): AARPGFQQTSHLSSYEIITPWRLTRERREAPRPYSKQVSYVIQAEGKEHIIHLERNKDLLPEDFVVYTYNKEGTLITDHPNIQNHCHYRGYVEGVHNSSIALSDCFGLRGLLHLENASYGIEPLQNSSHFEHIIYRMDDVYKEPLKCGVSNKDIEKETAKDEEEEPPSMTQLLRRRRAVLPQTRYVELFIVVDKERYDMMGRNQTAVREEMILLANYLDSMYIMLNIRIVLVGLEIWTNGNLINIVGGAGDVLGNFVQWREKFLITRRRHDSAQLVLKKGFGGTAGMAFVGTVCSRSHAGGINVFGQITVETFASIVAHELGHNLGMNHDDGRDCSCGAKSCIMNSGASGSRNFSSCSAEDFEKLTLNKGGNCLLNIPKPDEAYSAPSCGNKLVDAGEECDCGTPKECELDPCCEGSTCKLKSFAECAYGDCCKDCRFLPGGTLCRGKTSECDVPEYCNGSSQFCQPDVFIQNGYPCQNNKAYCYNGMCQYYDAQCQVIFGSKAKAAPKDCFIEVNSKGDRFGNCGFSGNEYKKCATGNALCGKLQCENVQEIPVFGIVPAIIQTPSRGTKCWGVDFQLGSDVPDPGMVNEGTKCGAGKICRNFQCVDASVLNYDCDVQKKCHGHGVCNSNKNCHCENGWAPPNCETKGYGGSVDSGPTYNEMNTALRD
Chain of MMP 12 (P39900 17-470 limits assumed): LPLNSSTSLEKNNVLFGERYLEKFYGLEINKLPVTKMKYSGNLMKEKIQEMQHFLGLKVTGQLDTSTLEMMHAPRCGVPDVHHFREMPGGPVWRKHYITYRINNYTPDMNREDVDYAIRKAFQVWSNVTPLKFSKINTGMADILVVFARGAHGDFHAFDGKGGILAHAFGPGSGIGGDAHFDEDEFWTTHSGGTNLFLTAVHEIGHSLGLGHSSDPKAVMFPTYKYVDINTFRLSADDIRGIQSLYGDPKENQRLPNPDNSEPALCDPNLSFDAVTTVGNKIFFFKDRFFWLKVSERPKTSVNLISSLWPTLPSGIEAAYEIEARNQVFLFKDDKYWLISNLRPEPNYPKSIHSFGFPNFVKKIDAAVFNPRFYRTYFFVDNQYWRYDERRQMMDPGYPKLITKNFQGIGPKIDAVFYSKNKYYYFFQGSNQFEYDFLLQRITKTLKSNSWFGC
Chain of MMP 3 (P08254 18-477 limits assumed): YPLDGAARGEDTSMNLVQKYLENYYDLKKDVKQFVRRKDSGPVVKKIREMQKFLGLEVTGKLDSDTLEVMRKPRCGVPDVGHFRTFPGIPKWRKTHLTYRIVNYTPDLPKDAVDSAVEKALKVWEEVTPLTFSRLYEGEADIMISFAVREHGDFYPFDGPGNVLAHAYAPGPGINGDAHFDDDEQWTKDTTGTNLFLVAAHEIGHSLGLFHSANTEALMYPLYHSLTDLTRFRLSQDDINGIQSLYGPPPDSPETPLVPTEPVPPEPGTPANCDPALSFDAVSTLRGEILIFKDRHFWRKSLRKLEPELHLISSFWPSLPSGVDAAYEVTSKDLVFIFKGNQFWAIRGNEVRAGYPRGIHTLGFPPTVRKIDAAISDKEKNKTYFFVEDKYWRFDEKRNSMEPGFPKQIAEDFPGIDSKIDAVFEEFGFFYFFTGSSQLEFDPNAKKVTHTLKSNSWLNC
Chain of Human ADAM10 from R & D Systems (human) (O14672 214-672 limits assumed): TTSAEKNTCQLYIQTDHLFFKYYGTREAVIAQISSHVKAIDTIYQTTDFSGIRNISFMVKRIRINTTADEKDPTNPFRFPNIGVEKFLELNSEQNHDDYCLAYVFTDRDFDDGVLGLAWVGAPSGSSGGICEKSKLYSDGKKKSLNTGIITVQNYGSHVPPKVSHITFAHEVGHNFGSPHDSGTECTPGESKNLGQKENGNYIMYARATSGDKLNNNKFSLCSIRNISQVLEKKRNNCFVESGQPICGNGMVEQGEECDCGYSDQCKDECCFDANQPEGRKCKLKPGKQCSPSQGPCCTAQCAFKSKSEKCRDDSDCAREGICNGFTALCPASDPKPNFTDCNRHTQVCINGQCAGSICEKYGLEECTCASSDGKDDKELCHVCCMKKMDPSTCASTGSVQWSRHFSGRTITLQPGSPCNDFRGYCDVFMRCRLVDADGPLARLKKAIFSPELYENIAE

In [1], “SEQ ID NO: 1 (human wild type ADAM10 prodomain peptide, amino acids 23-211 of NP_001101.1)” returned a percent inhibition of ADAM17 activity of 28 % at 8 µM. In the assay with ADAM9 from R & D Systems, this substance registered a percent inhibition of ADAM9 activity of 0 % at 8 µM. Moreover, the IC50 (nM), inhibition of ADAM10 cleavage of the fluorescent substrate PEPDAB064 in [2] was found to be 17 nM. Further, the percent inhibition of MMP activity (PEPDAB008 substrate) in the assay with MMP 12, with MMP 14, in the assay with MMP 2, with MMP 3 and with MMP 9 was 0 % at 8 µM throughout. In assay [3], the IC50 (nM), inhibition of meprin cleavage of the fluorescent substrate PEPDAB022 worked out at 185 nM.
